Measurements from article PMC11793827 (2025).

B1: AP1A5 (Fc fusion)
chain: EVQLQASGGGFVQPGGSLRLSCAASGSTASHYTMGWFRQAPGKEREFVSAISSGRDHAKQYADSVKGRFTISRDNSKNTVYLQMNSLRAEDTATYYCAYEEINATQKDTLYWGQGTQVTVSS
B2: AP1C3 (VHH)
VHH: EVQLQASGGGFVQPGGSLRLSCAASGRTYRGYSMGWFRQAPGKEREFVSAISSWSDDWTAYADSVKGRFTISRDNSKNTVYLQMNSLRAEDTATYYCAWQYIDEIQYYWGQGTQVTVSS
B3: DP4F2 (VHH)
VHH: EVQLQASGGGFVQPGGSLRLSCAASGTTYSERVMGWFRQAPGKEREFVSAISSGQSDQTYYADSVKGRFTISRDNSKNTVYLQMNSLRAEDTATYYCAPFAGDANLPREWYWGQGTQVTVSS
B4: BP2A6 (VHH)
VHH: EVQLQASGGGFVQPGGSLRLSCAASGQTFSHYIMGWFRQAPGKEREFVSAISAGQGHATYYADSVKGRFTISRDNSKNTVYLQMNSLRAEDTATYYCAKYQDTIAPLYWGQGTQVTVSS
B5: AP1D4 (Fc fusion)
chain: EVQLQASGGGFVQPGGSLRLSCAASGHTFDAHRMGWFRQAPGKEREFVSAISSWGQSSTYYADSVKGRFTISRDNSKNTVYLQMNSLRAEDTATYYCAQTDEGNQYVYWGQGTQVTVSS

Target: WT SARS-CoV-2 RBD (SARS-CoV-2, UniProt P0DTC2 14-1211)
Test: ELISA

| Binder | Kd [nM] |
| --- | --- |
| B1 | 1.19 |
| B2 | 0.08 |
| B3 | 10.7 |
| B4 | 0.06 |
| B5 | 0.97 |
